Here are results for three molecules from patent US20210085785A1 (TRUEBINDING, published 2021).

Assay [1] deals with T1, Purified human LRIG1 extracellular domain fused to a HIS tag (R&D Systems) (human) (UniProt Q96JA1).
T1 sequence: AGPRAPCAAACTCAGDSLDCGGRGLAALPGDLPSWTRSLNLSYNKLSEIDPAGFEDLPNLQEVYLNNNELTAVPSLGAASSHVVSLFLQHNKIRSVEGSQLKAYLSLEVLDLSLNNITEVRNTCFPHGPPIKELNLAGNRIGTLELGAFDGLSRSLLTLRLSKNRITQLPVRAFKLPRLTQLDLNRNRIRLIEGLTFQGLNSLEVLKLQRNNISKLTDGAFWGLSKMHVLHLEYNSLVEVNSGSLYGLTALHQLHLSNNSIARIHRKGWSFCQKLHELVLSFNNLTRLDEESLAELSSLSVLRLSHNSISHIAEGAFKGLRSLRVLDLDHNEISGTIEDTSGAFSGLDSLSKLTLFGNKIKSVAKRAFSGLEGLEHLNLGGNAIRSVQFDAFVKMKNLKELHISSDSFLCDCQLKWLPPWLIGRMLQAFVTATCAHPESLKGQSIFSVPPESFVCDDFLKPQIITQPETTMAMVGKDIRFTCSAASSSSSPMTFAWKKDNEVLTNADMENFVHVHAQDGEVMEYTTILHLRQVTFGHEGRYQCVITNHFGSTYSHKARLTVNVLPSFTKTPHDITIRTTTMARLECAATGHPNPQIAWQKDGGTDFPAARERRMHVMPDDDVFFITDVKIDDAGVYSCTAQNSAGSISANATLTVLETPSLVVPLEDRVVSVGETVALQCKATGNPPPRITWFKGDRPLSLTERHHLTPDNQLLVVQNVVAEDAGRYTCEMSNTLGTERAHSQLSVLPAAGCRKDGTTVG
As to the kind of experiment: biosensor binning; saturating mab5 20 ug/mL, competitor mab2 5 ug/mL.

Assay [2] has as its target T1, Purified human LRIG1 extracellular domain fused to a HIS tag (R&D Systems) (human). Description: biosensor binning; saturating mab5 20 ug/mL, competitor mab4 5 ug/mL.
The target is the same in assay [3]. As to the kind of experiment: biosensor binning; saturating mab5 20 ug/mL, competitor mab5 5 ug/mL.
For assay [4] the target is unchanged. As to the kind of experiment: biosensor binning; saturating mab5 20 ug/mL, competitor mab6 5 ug/mL.
Assay [5] has the same target. Description: blocking ELISA: LRIG1 ECD-His coated, antibody 3.3 ug/ml, oligomerized VISTA 50 nM, avidin-HRP.
Assay [6] concerns the target T2, Purified human LRIG1 extracellular domain fused to a HIS tag (R&D Systems) (human, UniProt Q96JA1 35-794).
T2 construct: also called human LRIG1-His; hLRIG1-His; not shown: HIS tag
T2 sequence: T1 sequence
Described as above. The protocol:
To identify LRIG1-targeted antibodies with the ability to block the interaction of LRIG1 and VISTA, purified LRIG1 and VISTA proteins were incubated in the presence of various LRIG1-targeted or control antibodies, or without antibody, and protein interaction was evaluated by ELISA. Purified human LRIG1 extracellular domain fused to a HIS tag (R&D Systems) was diluted in phosphate buffered saline (PBS) (Corning) to a concentration of 3 μg/ml and 100 ul was added to each well of a 96-well ELISA plate (Thermo Fisher, 44-2404-21). After incubating the plate at 4° C. overnight, the plate was washed three times with 300 μl of PBS with 0.05% TWEEN (VWR) (PBST) per well. The plate was then blocked for an hour with 200 μl of 2% bovine serum albumin (BSA) (Sigma) in PBST per well at room temperature with gentle rocking. Thereafter, the 2% BSA in PBST was removed and 50 ul of antibody at 3.3 ug/ml in 2% BSA in PBST was added to the wells. The plate was incubated for 10 minutes at room temperature with gentle rocking. Afterwards, 50 nM of oligomerized VISTA in 100 ul PBS buffer was added per well. […] The plate was read using a plate reader (Molecular Devices) at absorbance of 450 nm. Percent blockade of LRIG1-VISTA interaction was calculated as the fraction of signal obtained in each experimental samples of the no antibody sample less background signal.

Substitutions are numbered along the chain they refer to.

B1: mab5 (antibody, V domains shown)
VH: QVQLVQSGAEVKKPGASVKVSCKASGYTFTSYYLHWVRQAPGQRLEWMGWIYPGNVNTKYNQKFQGRVTITADKSASTAYMELSSLRSEDTAVYFCAREELGGFAYWGQGTLVTVSS
VL: DIQMTQSPSSLSASVGNRVTITCRASQDISNYLSWYQQKPGKVPKLLIYYTSILHSGVPSRFSGSGSGTDYSLTISSLQPEDVATYFCQQGNTLPRTFGQGTKVEIK
Turning to B1, the competition matrix entry (not explained) in assay [1], in assay [2], in assay [3] and in assay [4] was 0 throughout. The molecule further yielded a percent of LRIG1-VISTA binding relative to an unblocked sample in assay [5] of 60%.

B2: mab4 (IMT300) (antibody, V domains shown)
VH: B1 VH
VL: B1 VL with L11V, V15I, N17D, V43A, S72T, V83F, Q100G
notes: also called hLRIG1 mAb IMT300; Immutics PP14384
For the molecule B2, the “percent of LRIG1-VISTA binding relative to an unblocked sample” value in assay [6] was determined as 44%.

B3: mab6 (antibody, V domains shown)
VH: B1 VH with M48I, Q62E, I70L
VL: B1 VL with L11V, V15I, N17D, V43A, S72T, V83F, Q100G
notes: also called Immutics PP14387
As for B3, the “percent of LRIG1-VISTA binding relative to an unblocked sample” value in assay [6] was 43%.
